Measurements as given in US20220281976A1.

Columns and labels:
human CD33 (human) [1] = molecular target: human CD33 (human) (UniProt P20138); experiment: cell-based or functional assay
human CD33 (human) [2] = molecular target: human CD33 (human) (UniProt P20138); experiment: flow cytometry, human primary T cells
human CD33 (human) [3] = molecular target: human CD33 (human) (UniProt P20138); experiment: flow cytometry, human primary monocytes
human CD33 (human) [4] = molecular target: human CD33 (human) (UniProt P20138); experiment: flow cytometry, human primary macrophages
human CD33 (human) [5] = molecular target: human CD33 (human) (UniProt P20138); experiment: flow cytometry, human primary dendritic cells

Chain of human CD33 (human) (P20138 18-364): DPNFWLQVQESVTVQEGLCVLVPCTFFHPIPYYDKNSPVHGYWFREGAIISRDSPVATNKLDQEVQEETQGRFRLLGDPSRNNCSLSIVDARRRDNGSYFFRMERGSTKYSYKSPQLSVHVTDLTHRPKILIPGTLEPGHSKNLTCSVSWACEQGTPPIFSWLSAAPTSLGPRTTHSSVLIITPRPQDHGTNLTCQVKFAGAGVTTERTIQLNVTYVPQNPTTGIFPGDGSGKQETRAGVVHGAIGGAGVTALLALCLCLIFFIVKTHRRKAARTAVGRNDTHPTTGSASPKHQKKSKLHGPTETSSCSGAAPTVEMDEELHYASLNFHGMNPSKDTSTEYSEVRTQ

B1: C-51 (antibody, V domains shown)
VH: QLQLQESGPGLVKPSETLSLTCTVSGGSISSSSYYWGWIRQPPGKGLEWIGSIYYSGSTYYNPSLKSRVTISVDTSKNQFSLKLSSVTAADTAVYYCARGAPHDYGGGVGWFDPWGQGTTVTVSS
VL: DIQMTQSPSSVSASVGDRVTITCRASQGISSWLAWYQQKPGKAPKLLIYAASNLQSGVPSRFSGSGSGTDFTLTISSLQPEDFATYYCQQSRVFPWTFGGGTKVEIK
In the case of B1, the Percent CD33 Surface Expression, DC % CD33 (human CD33 (human) [1]) is reported as 86%, the Percent CD33 Surface Expression, Monocyte % CD33 (human CD33 (human) [1]) is reported as 88% and the T cell MFI (human CD33 (human) [2]) is reported as 29.3. For the same binder, the Monocyte MFI (human CD33 (human) [3]) was 126, the Macrophage MFI (human CD33 (human) [4]) was 656 and the DC MFI (human CD33 (human) [5]) was 496.
